Read-outs that look alike come from different tables or passages of the source.
Legend:
Test in all cases: cell-based or functional assay
[1] = target: T1, human type I IFN receptor on HEK-Blue IFN-α/β cells (human, UniProt P17181 28-557; P48551 27-515)
T1 sequence (looked up) 1: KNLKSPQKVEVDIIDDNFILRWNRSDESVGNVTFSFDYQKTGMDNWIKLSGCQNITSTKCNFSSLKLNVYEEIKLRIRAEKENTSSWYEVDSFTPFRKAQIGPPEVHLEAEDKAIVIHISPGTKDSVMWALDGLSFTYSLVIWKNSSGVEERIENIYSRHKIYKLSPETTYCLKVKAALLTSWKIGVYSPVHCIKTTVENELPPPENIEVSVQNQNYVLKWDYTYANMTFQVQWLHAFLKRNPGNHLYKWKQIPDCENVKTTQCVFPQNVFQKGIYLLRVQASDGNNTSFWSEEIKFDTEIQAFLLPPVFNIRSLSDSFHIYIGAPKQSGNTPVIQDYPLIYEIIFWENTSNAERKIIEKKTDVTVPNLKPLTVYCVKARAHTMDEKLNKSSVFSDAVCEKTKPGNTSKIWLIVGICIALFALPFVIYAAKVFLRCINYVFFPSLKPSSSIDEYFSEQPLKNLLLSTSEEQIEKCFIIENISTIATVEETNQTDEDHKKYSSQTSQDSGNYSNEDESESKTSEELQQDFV
T1 sequence (looked up) 2: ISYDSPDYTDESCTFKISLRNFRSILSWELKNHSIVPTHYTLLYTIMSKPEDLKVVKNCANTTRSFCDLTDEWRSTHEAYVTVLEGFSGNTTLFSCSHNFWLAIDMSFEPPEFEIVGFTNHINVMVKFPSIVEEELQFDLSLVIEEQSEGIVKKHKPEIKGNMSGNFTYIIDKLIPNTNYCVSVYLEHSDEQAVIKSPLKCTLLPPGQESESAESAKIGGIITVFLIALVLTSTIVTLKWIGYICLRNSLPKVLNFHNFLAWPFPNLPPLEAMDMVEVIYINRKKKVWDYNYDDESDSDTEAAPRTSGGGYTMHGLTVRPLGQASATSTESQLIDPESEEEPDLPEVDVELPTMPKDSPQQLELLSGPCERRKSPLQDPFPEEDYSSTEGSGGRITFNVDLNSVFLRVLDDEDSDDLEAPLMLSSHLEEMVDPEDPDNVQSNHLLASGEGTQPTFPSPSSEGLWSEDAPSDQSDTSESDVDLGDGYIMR

[2] = target: T2, human CD40 (human, UniProt P25942 21-277)
T2 sequence (P25942 21-277): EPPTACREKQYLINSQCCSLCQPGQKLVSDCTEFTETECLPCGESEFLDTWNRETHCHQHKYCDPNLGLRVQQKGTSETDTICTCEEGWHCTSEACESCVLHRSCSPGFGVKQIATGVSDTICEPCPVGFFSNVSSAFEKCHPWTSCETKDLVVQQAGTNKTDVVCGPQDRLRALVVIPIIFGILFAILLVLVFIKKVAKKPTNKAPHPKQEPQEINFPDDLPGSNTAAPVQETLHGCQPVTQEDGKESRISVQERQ

[3] = target: T3, human IFNλ receptor on HEK-Blue IFN-λ cells (human, UniProt Q8IU57 21-520; Q08334 20-325)
T3 sequence (looked up) 1: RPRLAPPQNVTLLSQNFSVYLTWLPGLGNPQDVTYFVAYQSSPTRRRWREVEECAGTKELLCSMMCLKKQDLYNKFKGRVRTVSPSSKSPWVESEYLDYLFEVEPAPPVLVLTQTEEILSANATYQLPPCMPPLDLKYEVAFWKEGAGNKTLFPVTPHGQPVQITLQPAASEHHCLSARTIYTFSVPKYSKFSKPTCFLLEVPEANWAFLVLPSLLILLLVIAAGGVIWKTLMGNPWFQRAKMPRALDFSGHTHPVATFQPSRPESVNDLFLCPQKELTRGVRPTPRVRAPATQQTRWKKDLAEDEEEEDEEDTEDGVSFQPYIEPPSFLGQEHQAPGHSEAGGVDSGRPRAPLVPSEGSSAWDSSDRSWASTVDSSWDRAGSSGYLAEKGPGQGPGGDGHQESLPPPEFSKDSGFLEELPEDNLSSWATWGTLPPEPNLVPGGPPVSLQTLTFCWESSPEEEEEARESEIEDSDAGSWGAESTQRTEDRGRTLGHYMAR
T3 sequence (looked up) 2: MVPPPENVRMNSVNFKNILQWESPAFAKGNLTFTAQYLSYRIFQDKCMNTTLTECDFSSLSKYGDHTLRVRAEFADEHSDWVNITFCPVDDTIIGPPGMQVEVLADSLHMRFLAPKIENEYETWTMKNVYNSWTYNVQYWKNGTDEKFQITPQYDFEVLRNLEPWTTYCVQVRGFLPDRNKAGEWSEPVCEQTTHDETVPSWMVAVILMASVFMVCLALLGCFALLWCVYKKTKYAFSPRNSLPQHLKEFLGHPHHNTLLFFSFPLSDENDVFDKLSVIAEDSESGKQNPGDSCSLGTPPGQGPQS

[4] = target: T2, human CD40; remark: listed apart in the source
[5] = target: T2, human CD40; remark: listed apart in the source
[6] = target: T4, human IFNγ receptor on HEK-Blue IFN-γ cells (human, UniProt P15260 18-489; P38484 22-337)
T4 sequence (looked up) 1: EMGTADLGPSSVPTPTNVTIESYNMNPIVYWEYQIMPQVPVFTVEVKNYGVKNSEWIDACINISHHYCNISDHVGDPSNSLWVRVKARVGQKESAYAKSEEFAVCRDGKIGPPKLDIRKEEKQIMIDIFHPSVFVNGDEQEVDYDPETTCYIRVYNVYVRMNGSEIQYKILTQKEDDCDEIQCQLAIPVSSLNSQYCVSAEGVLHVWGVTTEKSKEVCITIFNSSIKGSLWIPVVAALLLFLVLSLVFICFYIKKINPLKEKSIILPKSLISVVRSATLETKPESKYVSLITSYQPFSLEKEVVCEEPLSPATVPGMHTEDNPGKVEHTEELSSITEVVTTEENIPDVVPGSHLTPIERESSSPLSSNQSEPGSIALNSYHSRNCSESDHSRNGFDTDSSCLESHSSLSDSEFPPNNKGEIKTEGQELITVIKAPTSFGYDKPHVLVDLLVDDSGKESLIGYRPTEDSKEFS
T4 sequence (looked up) 2: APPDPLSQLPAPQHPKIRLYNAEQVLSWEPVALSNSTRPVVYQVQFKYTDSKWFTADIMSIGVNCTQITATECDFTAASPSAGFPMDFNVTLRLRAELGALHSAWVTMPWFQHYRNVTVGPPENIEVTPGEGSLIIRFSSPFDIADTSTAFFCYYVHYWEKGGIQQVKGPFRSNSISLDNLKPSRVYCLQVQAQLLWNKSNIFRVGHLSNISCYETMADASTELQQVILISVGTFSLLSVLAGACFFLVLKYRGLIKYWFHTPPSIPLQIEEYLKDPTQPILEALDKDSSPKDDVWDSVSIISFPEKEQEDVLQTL

B1: IFA12 (antibody, human IgG2, kappa)
light: DIQMTQSPSSVSASVGDRVTITCRASQGIYSWLAWYQQKPGKAPNLLIYTASTLQSGVPSRFSGSGSGTDFTLTISSLQPEDFATYYCQQANIFPLTFGGGTKVEIKRTVAAPSVFIFPPSDEQLKSGTASVVCLLNNFYPREAKVQWKVDNALQSGNSQESVTEQDSKDSTYSLSSTLTLSKADYEKHKVYACEVTHQGLSSPVTKSFNRGECPAPAMSYNLLGFLQRSSNFQCQKLLWQLNGRLEYCLKDRMNFDIPEEIKQLQQFQKEDAALTIYEMLQNIFAIFRQDSSSTGWNETIVENLLANVYHQINHLKTVLEEKLEKEDFTRGKLMSSLHLKRYYGRILHYLKAKEYSHCAWTIVRVEILRNFYFINRLTGYLRN
heavy: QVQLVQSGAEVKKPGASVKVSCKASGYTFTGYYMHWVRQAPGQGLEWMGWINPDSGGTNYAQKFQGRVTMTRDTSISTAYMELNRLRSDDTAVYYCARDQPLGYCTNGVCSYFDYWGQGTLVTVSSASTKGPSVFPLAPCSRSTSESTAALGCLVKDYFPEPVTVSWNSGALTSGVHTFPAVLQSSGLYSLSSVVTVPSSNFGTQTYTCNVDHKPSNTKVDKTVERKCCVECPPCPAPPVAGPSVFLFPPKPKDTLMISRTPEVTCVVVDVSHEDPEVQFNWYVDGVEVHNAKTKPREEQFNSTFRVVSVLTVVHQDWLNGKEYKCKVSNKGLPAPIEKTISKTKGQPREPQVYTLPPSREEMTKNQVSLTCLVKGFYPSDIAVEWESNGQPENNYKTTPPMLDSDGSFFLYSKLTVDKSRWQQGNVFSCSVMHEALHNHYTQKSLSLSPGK
For B1, the “IFNβ EC50 (ng/mL), SEAP reporter in HEK-Blue IFN-α/β cells” value (from here on “IFNβ EC50 (ng/mL), SEAP reporter”) [1] was 3.64 ng/mL and the “CD40 EC50 (ng/mL), NFκB-SEAP reporter in HEK-Blue CD40L cells” value (from here on “CD40 EC50 (ng/mL), NFκB-SEAP reporter”) [2] was 105 ng/mL.

B2: IFA13 (antibody, human IgG2, kappa)
light: DIQMTQSPSSVSASVGDRVTITCRASQGIYSWLAWYQQKPGKAPNLLIYTASTLQSGVPSRFSGSGSGTDFTLTISSLQPEDFATYYCQQANIFPLTFGGGTKVEIKRTVAAPSVFIFPPSDEQLKSGTASVVCLLNNFYPREAKVQWKVDNALQSGNSQESVTEQDSKDSTYSLSSTLTLSKADYEKHKVYACEVTHQGLSSPVTKSFNRGECPAPAMSYNLLGFLQRSSNFQSQKLLWQLNGRLEYCLKDRMNFDIPEEIKQLQQFQKEDAALTIYEMLQNIFAIFRQDSSSTGWNETIVENLLANVYHQINHLKTVLEEKLEKEDFTRGKLMSSLHLKRYYGRILHYLKAKEYSHCAWTIVRVEILRNFYFINRLTGYLRN
heavy: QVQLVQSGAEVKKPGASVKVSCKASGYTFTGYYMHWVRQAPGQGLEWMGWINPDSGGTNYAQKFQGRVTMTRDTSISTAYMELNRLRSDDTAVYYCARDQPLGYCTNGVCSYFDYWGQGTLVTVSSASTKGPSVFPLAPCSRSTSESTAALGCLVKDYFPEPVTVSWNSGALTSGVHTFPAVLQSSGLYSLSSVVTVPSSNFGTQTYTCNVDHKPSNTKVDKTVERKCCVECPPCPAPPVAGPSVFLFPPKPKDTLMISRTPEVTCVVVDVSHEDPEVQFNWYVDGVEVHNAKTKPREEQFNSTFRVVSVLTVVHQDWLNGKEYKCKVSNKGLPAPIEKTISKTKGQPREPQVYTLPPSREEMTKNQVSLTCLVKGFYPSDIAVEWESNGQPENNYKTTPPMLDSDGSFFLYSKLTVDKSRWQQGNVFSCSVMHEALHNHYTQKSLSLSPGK
For B2, the “IFNβ EC50 (ng/mL), SEAP reporter” value [1] was 0.7 ng/mL and the “CD40 EC50 (ng/mL), NFκB-SEAP reporter” value [2] was 192 ng/mL.

B3: IFA45 (antibody, human IgG2, kappa)
heavy: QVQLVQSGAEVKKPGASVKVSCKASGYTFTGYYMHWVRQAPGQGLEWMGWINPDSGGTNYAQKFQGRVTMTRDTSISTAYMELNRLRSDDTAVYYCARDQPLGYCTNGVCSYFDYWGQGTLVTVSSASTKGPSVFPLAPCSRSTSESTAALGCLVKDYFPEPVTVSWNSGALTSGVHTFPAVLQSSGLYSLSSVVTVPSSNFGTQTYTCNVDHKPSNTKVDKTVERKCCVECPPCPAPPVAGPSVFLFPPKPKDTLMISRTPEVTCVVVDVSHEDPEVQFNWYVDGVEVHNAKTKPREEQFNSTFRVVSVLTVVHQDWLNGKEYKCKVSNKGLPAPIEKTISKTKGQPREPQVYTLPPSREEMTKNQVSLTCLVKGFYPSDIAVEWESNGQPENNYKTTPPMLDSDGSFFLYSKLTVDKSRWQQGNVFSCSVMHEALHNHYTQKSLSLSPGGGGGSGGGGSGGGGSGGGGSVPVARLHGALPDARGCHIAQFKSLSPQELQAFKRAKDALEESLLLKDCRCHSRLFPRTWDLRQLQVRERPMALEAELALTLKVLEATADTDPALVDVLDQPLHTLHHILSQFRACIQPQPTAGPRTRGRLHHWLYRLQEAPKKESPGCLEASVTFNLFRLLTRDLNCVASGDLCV
light: DIQMTQSPSSVSASVGDRVTITCRASQGIYSWLAWYQQKPGKAPNLLIYTASTLQSGVPSRFSGSGSGTDFTLTISSLQPEDFATYYCQQANIFPLTFGGGTKVEIKRTVAAPSVFIFPPSDEQLKSGTASVVCLLNNFYPREAKVQWKVDNALQSGNSQESVTEQDSKDSTYSLSSTLTLSKADYEKHKVYACEVTHQGLSSPVTKSFNRGEC
For B3, the “IFNλ EC50 (ng/mL), reporter in HEK-Blue IFNλ cells” value [3] was less than 0.001 ng/mL and the “CD40 EC50 (ng/mL), NFκB-SEAP reporter” value [4] was 25.8 ng/mL.

B4: IFA11 (antibody, human IgG2, kappa)
heavy: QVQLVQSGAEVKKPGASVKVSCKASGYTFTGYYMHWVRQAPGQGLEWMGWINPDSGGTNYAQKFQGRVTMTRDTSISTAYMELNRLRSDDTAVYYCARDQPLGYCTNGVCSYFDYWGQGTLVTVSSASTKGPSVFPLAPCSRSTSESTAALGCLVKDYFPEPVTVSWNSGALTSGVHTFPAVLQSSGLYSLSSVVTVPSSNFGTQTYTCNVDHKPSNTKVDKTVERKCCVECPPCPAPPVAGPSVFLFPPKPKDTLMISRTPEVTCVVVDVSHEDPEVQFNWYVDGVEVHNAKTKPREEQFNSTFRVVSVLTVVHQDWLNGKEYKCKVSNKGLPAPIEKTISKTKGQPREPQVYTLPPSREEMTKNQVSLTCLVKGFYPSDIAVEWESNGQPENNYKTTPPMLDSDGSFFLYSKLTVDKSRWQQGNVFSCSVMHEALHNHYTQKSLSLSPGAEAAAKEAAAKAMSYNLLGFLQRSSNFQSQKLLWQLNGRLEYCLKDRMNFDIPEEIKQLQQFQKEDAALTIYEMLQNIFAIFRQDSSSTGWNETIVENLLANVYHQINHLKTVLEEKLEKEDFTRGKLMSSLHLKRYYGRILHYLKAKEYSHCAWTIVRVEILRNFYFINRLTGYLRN
light: DIQMTQSPSSVSASVGDRVTITCRASQGIYSWLAWYQQKPGKAPNLLIYTASTLQSGVPSRFSGSGSGTDFTLTISSLQPEDFATYYCQQANIFPLTFGGGTKVEIKRTVAAPSVFIFPPSDEQLKSGTASVVCLLNNFYPREAKVQWKVDNALQSGNSQESVTEQDSKDSTYSLSSTLTLSKADYEKHKVYACEVTHQGLSSPVTKSFNRGEC
For B4, the “IFNβ EC50 (ng/mL), SEAP reporter” value [1] was 1.78 ng/mL and the “CD40 EC50 (ng/mL), NFκB-SEAP reporter” value [2] was 42.8 ng/mL.

B5: agonistic anti-CD40 antibody CP870,893 (antibody, human IgG2, kappa)
heavy: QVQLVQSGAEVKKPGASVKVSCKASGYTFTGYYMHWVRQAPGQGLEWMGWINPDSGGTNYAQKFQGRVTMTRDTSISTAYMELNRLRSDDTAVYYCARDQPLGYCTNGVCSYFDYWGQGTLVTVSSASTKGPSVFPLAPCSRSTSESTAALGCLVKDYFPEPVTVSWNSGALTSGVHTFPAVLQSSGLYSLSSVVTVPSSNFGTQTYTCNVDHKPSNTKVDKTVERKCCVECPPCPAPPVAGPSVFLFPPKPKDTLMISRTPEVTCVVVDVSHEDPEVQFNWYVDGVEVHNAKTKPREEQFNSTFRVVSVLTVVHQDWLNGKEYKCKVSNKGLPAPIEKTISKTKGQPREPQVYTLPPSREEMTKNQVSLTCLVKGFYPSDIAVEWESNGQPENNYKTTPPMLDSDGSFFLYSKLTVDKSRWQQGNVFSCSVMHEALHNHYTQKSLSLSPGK
light: DIQMTQSPSSVSASVGDRVTITCRASQGIYSWLAWYQQKPGKAPNLLIYTASTLQSGVPSRFSGSGSGTDFTLTISSLQPEDFATYYCQQANIFPLTFGGGTKVEIKRTVAAPSVFIFPPSDEQLKSGTASVVCLLNNFYPREAKVQWKVDNALQSGNSQESVTEQDSKDSTYSLSSTLTLSKADYEKHKVYACEVTHQGLSSPVTKSFNRGEC
In the case of B5, the “EC50 for agonistic CD40, HEK-Blue CD40L cells, experiment of FIG. 3” value [5] is reported as 57 ng/mL, the “EC50 on CD40 pathway, HEK-Blue CD40L cells” value [5] is reported as 30 to 80 ng/mL and the “mean EC50 for agonistic CD40, HEK-Blue CD40L cells” value [5] is reported as 48 ng/mL.

B6: IFA44 (antibody, human IgG2, kappa)
light: DIQMTQSPSSVSASVGDRVTITCRASQGIYSWLAWYQQKPGKAPNLLIYTASTLQSGVPSRFSGSGSGTDFTLTISSLQPEDFATYYCQQANIFPLTFGGGTKVEIKRTVAAPSVFIFPPSDEQLKSGTASVVCLLNNFYPREAKVQWKVDNALQSGNSQESVTEQDSKDSTYSLSSTLTLSKADYEKHKVYACEVTHQGLSSPVTKSFNRGECGGGGSGGGGSGGGGSGGGGSVPVARLHGALPDARGCHIAQFKSLSPQELQAFKRAKDALEESLLLKDCRCHSRLFPRTWDLRQLQVRERPMALEAELALTLKVLEATADTDPALVDVLDQPLHTLHHILSQFRACIQPQPTAGPRTRGRLHHWLYRLQEAPKKESPGCLEASVTFNLFRLLTRDLNCVASGDLCV
heavy: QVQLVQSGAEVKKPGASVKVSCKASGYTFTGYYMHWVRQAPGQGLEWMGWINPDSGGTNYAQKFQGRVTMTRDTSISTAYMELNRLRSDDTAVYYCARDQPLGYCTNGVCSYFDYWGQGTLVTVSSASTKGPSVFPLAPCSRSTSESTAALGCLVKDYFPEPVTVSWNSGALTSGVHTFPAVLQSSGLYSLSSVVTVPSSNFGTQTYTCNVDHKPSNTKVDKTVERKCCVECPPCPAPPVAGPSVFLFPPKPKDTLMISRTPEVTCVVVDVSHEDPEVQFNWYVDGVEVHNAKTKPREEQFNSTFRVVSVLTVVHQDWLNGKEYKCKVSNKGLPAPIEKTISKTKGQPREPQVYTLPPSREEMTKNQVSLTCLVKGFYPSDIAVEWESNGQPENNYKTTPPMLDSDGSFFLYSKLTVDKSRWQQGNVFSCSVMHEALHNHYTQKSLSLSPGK
With B6 the “IFNλ EC50 (ng/mL), reporter in HEK-Blue IFNλ cells” value [3] was 0.153 ng/mL and the “CD40 EC50 (ng/mL), NFκB-SEAP reporter” value [4] was 41.4 ng/mL.

B7: IFA42 (antibody, human IgG2, kappa)
light: DIQMTQSPSSVSASVGDRVTITCRASQGIYSWLAWYQQKPGKAPNLLIYTASTLQSGVPSRFSGSGSGTDFTLTISSLQPEDFATYYCQQANIFPLTFGGGTKVEIKRTVAAPSVFIFPPSDEQLKSGTASVVCLLNNFYPREAKVQWKVDNALQSGNSQESVTEQDSKDSTYSLSSTLTLSKADYEKHKVYACEVTHQGLSSPVTKSFNRGECGGGGSGGGGSGGGGSGGGGSQDPYVKEAENLKKYFNAGHSDVADNGTLFLGILKNWKEESDRKIMQSQIVSFYFKLFKNFKDDQSIQKSVETIKEDMNVKFFNSNKKKRDDFEKLTNYSVTDLNVQRKAIHELIQVMAELSPAAKTGKRKRSQMLFRGRRASQ
heavy: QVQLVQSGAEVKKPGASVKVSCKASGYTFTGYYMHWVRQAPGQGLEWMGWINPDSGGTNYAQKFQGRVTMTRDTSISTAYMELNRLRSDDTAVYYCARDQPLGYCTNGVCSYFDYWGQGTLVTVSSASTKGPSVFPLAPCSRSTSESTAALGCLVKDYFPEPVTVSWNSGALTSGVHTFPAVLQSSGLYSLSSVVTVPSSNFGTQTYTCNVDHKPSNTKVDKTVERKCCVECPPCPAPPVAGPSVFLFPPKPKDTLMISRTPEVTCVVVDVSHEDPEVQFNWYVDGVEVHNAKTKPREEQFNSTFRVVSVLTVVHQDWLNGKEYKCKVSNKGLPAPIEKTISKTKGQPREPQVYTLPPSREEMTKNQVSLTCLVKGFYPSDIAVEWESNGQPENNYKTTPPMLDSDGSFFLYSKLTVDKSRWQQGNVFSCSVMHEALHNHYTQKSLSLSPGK
With B7 the “CD40 EC50 (ng/mL), NFκB-SEAP reporter” value [4] was 65.6 ng/mL and the “IFNγ EC50 (ng/mL), reporter in HEK-Blue IFNγ cells” value [6] was 15.4 ng/mL.

B8: IFA19 (antibody, human IgG2, kappa)
light: DIQMTQSPSSVSASVGDRVTITCRASQGIYSWLAWYQQKPGKAPNLLIYTASTLQSGVPSRFSGSGSGTDFTLTISSLQPEDFATYYCQQANIFPLTFGGGTKVEIKRTVAAPSVFIFPPSDEQLKSGTASVVCLLNNFYPREAKVQWKVDNALQSGNSQESVTEQDSKDSTYSLSSTLTLSKADYEKHKVYACEVTHQGLSSPVTKSFNRGECSGGTSGSTSGTGSMSYNLLGFLQRSSNFQSQKLLWQLNGRLEYCLKDRMNFDIPEEIKQLQQFQKEDAALTIYEMLQNIFAIFRQDSSSTGWNETIVENLLANVYHQINHLKTVLEEKLEKEDFTRGKLMSSLHLKRYYGRILHYLKAKEYSHCAWTIVRVEILRNFYFINRLTGYLRN
heavy: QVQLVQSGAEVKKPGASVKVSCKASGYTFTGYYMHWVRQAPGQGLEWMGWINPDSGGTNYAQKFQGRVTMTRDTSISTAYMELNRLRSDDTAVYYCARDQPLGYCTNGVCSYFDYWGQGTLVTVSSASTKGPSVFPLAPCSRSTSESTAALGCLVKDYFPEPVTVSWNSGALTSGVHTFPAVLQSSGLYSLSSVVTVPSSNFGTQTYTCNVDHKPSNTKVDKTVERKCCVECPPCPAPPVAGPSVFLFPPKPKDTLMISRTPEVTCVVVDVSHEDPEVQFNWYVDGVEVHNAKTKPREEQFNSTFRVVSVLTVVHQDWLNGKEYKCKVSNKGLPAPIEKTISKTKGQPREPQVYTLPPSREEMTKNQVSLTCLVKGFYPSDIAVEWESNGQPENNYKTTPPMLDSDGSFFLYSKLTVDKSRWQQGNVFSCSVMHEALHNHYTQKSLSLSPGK
B8 was tested, and the “IFNβ EC50 (ng/mL), SEAP reporter” value [1] was 1.3 ng/mL and the “CD40 EC50 (ng/mL), NFκB-SEAP reporter” value [2] was 110 ng/mL.

Source: patent US20230279137A1 (EVOTEC INTERNATIONAL, published 2023)
